Test results published in the RNAGym collection of RNA variant scans (doi:10.7554/elife.80360).

B1: Hairpin Ribozyme (parent)
chain: GUCCUCUUUCACGUGCGCGUGAAAGAGAGAAGUGAACCAGAGAAACACACGUUGUGGUAUAUUACCUGGUA

Variants of: B1
Experiment: self-cleavage, relative activity (ratio to wild type); higher = more cleavage; co-transcriptional

Variant | self-cleavage
GUCCUCUUUCACGUGCGCGUGAAAGAGAGAAGUGAACCAGAGAAACACACGUUUUGGUGUAUUACCUGGUA [G54U A59G] | 0.148
GUCCUCUUUCACGUGCGCGUGAAAGAGAGAAGUGAACCAGAGAAACACACGUUCUGGUAUAUUACCUGGUC [G54C A71C] | 0.961
GUCCUCUUUCACGUGCGCGUGAAAGAGAGAAGUGAACCAGAGAAACACACGUUCUGGUAUAUUACCUGGUU [G54C A71U] | 0.243
GUCCUCUUUCACGUGCGCGUGAAAGAGAGAAGUGAACCAGAGAAACACACGUUUUGGUAUAUUUCCUGGUA [G54U A64U] | 0.114
GUCCUCUUUCACGUGCGCGUGAAAGAGAGAAGUGAACCAGAGAAACACACGUUUUCGUAUAUUACCUGGUA [G54U G56C] | 0.24
GUCCUCUUUCACGUGCGCGUGAAAGAGAGAAGUGAACCAGAGAAACACACGUUUUAGUAUAUUACCUGGUA [G54U G56A] | 0.114
GUCCUCUUUCACGUGCGCGUGAAAGAGAGAAGUGAACCAGAGAAACACACGUUGCGGUAUGUUACCUGGUA [U55C A61G] | 0.181
GUCCUCUUUCACGUGCGCGUGAAAGAGAGAAGUGAACCAGAGAAACACACGUUCCGGUAUAUUACCUGGUA [G54C U55C] | 0.245
GUCCUCUUUCACGUGCGCGUGAAAGAGAGAAGUGAACCAGAGAAACACACGUUGAGGUAUAUUACCUAGUA [U55A G68A] | 0.163
GUCCUCUUUCACGUGCGCGUGAAAGAGAGAAGUGAACCAGAGAAACACACGUUCUGGUAUAUUACCGGGUA [G54C U67G] | 0.174
GUCCUCUUUCACGUGCGCGUGAAAGAGAGAAGUGAACCAGAGAAACACACGUUCUGGUAUAUUACGUGGUA [G54C C66G] | 0.237
GUCCUCUUUCACGUGCGCGUGAAAGAGAGAAGUGAACCAGAGAAACACACGUUAUGGUAAAUUACCUGGUA [G54A U60A] | 0.409
GUCCUCUUUCACGUGCGCGUGAAAGAGAGAAGUGAACCAGAGAAACACACGUUAUGGUACAUUACCUGGUA [G54A U60C] | 0.912
GUCCUCUUUCACGUGCGCGUGAAAGAGAGAAGUGAACCAGAGAAACACACGUUCUGGUAUAUUACCUGCUA [G54C G69C] | 0.0871
GUCCUCUUUCACGUGCGCGUGAAAGAGAGAAGUGAACCAGAGAAACACACGUUCUGGUAUAUCACCUGGUA [G54C U63C] | 0.099
GUCCUCUUUCACGUGCGCGUGAAAGAGAGAAGUGAACCAGAGAAACACACGUUCUGGUAUAUAACCUGGUA [G54C U63A] | 0.103
GUCCUCUUUCACGUGCGCGUGAAAGAGAGAAGUGAACCAGAGAAACACACGUUGCGUUAUAUUACCUGGUA [U55C G57U] | 0.299
GUCCUCUUUCACGUGCGCGUGAAAGAGAGAAGUGAACCAGAGAAACACACGUUCUGGUAUAUUACCUUGUA [G54C G68U] | 0.158
GUCCUCUUUCACGUGCGCGUGAAAGAGAGAAGUGAACCAGAGAAACACACGUUCUGGUAUAUUACCUCGUA [G54C G68C] | 0.221

Variant | self-cleavage
GUCCUCUUUCACGUGCGCGUGAAAGAGAGAAGUGAACCAGAGAAACACACGUUGAAGUAUAUUACCUGGUA [U55A G56A] | 0.168
GUCCUCUUUCACGUGCGCGUGAAAGAGAGAAGUGAACCAGAGAAACACACGUUGAGGUAUAUUACUUGGUA [U55A C66U] | 0.258
GUCCUCUUUCACGUGCGCGUGAAAGAGAGAAGUGAACCAGAGAAACACACGUUGAGGUAUAUUACGUGGUA [U55A C66G] | 0.24
GUCCUCUUUCACGUGCGCGUGAAAGAGAGAAGUGAACCAGAGAAACACACGUUUUGGUAUAUUACCUGGGA [G54U U70G] | 0.43
GUCCUCUUUCACGUGCGCGUGAAAGAGAGAAGUGAACCAGAGAAACACACGUUUUGGUAUAUUACCUGGCA [G54U U70C] | 0.569
GUCCUCUUUCACGUGCGCGUGAAAGAGAGAAGUGAACCAGAGAAACACACGUUGAGGUAUAUUACCCGGUA [U55A U67C] | 0.149
GUCCUCUUUCACGUGCGCGUGAAAGAGAGAAGUGAACCAGAGAAACACACGUUGAGGCAUAUUACCUGGUA [U55A U58C] | 0.427
GUCCUCUUUCACGUGCGCGUGAAAGAGAGAAGUGAACCAGAGAAACACACGUUGAGGGAUAUUACCUGGUA [U55A U58G] | 0.183
GUCCUCUUUCACGUGCGCGUGAAAGAGAGAAGUGAACCAGAGAAACACACGUUUUGGUAUAUUACCUGCUA [G54U G69C] | 0.194
GUCCUCUUUCACGUGCGCGUGAAAGAGAGAAGUGAACCAGAGAAACACACGUUUUGGUAUAUUACCUGUUA [G54U G69U] | 0.182
GUCCUCUUUCACGUGCGCGUGAAAGAGAGAAGUGAACCAGAGAAACACACGUUGAGGUAUAUUAACUGGUA [U55A C65A] | 0.204
GUCCUCUUUCACGUGCGCGUGAAAGAGAGAAGUGAACCAGAGAAACACACGUUUUGGUAUAAUACCUGGUA [G54U U62A] | 0.229
GUCCUCUUUCACGUGCGCGUGAAAGAGAGAAGUGAACCAGAGAAACACACGUUUUGGUAUAGUACCUGGUA [G54U U62G] | 0.166
GUCCUCUUUCACGUGCGCGUGAAAGAGAGAAGUGAACCAGAGAAACACACGUUCUGGUAUAUUAUCUGGUA [G54C C65U] | 0.132
GUCCUCUUUCACGUGCGCGUGAAAGAGAGAAGUGAACCAGAGAAACACACGUUCUGGUAUAUUAGCUGGUA [G54C C65G] | 0.151
GUCCUCUUUCACGUGCGCGUGAAAGAGAGAAGUGAACCAGAGAAACACACGUUGCGGUAAAUUACCUGGUA [U55C U60A] | 0.168
GUCCUCUUUCACGUGCGCGUGAAAGAGAGAAGUGAACCAGAGAAACACACGUUGCGGUAGAUUACCUGGUA [U55C U60G] | 0.347
GUCCUCUUUCACGUGCGCGUGAAAGAGAGAAGUGAACCAGAGAAACACACGUUGAGGUACAUUACCUGGUA [U55A U60C] | 0.712
GUCCUCUUUCACGUGCGCGUGAAAGAGAGAAGUGAACCAGAGAAACACACGUUUAGGUAUAUUACCUGGUA [G54U U55A] | 0.354
